Data from IntAct's records for PubMed 27852061.

B1: Forkhead box protein E1 (Homo sapiens), O00358 (parent)
chain: MTAESGPPPPQPEVLATVKEERGETAAGAGVPGEATGRGAGGRRRKRPLQRGKPPYSYIALIAMAIAHAPERRLTLGGIYKFITERFPFYRDNPKKWQNSIRHNLTLNDCFLKIPREAGRPGKGNYWALDPNAEDMFESGSFLRRRKRFKRSDLSTYPAYMHDAAAAAAAAAAAAAAAAIFPGAVPAARPPYPGAVYAGYAPPSLAAPPPVYYPAASPGPCRVFGLVPERPLSPELGPAPSGPGGSCAFASAGAPATTTGYQPAGCTGARPANPSAYAAAYAGPDGAYPQGAGSAIFAAAGRLAGPASPPAGGSSGGVETTVDFYGRTSPGQFGALGACYNPGGQLGGASAGAYHARHAAAYPGGIDRFVSAM
partner: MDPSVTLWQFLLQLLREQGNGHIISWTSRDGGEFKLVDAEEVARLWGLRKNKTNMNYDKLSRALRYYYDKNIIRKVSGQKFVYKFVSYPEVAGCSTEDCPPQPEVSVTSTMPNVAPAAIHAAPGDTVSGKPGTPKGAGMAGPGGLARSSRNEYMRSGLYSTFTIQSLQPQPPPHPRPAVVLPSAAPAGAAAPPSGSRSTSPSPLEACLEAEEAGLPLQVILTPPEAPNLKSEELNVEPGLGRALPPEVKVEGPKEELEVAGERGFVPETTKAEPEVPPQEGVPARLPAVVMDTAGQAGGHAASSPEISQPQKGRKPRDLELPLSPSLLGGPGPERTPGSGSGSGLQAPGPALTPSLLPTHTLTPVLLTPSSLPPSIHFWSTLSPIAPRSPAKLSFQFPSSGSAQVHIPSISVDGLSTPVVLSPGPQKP

Variants of: B1
Details: with elk1_human ELK1, P19419

effect of a mutation on the interaction	Variant
with no effect	MTAESGPPPPQPEVLATVKEERGETAAGAGVPGEATGRGAGGRRRKRPLQRGKPPYSYIALIAMVIAHAPERRLTLGGIYKFITERFPFYRDNPKKWQNSIRHNLTLNDCFLKIPREAGRPGKGNYWALDPNAEDMFESGSFLRRRKRFKRSDLSTYPAYMHDAAAAAAAAAAAAAAAAIFPGAVPAARPPYPGAVYAGYAPPSLAAPPPVYYPAASPGPCRVFGLVPERPLSPELGPAPSGPGGSCAFASAGAPATTTGYQPAGCTGARPANPSAYAAAYAGPDGAYPQGAGSAIFAAAGRLAGPASPPAGGSSGGVETTVDFYGRTSPGQFGALGACYNPGGQLGGASAGAYHARHAAAYPGGIDRFVSAM [A65V]
